Laboratory results from US20230257470A1 (published 2023).
Where a chain is given by its changes, count along the chain named.

T1: human FcγRIIb (human, UniProt P31994 43-217, limits assumed)
T1 construct: also called FcgRIIb; FcγIIB
T1 sequence: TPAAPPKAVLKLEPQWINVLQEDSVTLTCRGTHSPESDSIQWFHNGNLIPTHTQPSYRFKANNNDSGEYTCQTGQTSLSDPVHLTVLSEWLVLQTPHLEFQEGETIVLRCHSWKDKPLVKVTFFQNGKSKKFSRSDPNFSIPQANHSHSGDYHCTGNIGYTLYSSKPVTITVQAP

T2: human FcγRIIa(R) (human, UniProt P12318 36-217)
T2 construct: also called FcgRIIaR; FcγRIIa type R
T2 chain: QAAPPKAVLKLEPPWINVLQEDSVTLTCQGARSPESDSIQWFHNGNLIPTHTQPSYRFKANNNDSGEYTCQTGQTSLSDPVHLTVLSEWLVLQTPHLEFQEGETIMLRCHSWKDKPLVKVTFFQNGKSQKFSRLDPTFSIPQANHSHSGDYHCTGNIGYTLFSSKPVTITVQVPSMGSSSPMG

T3: human FcγRIIa(H) (human, UniProt P12318 36-217)
T3 construct: also called FcgRIIaH; FcγRIIa type H
T3 sequence: T2 chain with R133H

B1: GpH7-B3/GpL16-k0 variant D270P (antibody, human IgG1)
heavy: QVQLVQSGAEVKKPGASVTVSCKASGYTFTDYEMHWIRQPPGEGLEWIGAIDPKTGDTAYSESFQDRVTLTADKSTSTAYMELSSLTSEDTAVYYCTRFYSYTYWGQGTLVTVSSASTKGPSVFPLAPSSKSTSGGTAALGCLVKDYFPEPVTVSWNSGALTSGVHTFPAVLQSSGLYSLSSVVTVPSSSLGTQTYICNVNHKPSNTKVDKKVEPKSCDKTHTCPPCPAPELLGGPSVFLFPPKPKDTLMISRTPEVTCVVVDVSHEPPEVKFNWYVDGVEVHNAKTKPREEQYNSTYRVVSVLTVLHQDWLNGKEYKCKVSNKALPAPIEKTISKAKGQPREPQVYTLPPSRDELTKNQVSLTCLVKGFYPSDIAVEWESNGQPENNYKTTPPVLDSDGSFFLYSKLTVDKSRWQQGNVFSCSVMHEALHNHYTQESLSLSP
light: DIVMTQSPLSLPVTPGEPASISCQASESLVHSNRNTYLHWYLQKPGQSPQLLIYKVSNRFSGVPDRFSGSGSGTDFTLKISRVEAEDVGVYYCSQNTHVPPTFGQGTKVEIE
notes: also called B3 variant; copies: 2 + 2
B2: GpH7-B3/GpL16-k0 variant Q295F (antibody, human IgG1)
heavy: not shown
light: B1 light
notes: as for B1
B3: GpH7-B3/GpL16-k0 variant D270N (antibody, human IgG1)
heavy: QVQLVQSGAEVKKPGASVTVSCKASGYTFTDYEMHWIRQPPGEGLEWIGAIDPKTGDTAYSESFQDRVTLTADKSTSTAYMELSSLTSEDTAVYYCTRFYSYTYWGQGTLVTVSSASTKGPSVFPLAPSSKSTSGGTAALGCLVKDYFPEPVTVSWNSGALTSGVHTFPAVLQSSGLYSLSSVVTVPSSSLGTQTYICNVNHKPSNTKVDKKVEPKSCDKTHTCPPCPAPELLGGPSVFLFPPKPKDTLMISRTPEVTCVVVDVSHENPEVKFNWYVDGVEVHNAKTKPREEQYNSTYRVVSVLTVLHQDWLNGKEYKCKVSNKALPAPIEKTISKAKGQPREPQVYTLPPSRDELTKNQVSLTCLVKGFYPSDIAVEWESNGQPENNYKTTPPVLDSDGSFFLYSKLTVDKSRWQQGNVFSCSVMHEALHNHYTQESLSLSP
light: B1 light
notes: as for B1
B4: GpH7-B3/GpL16-k0 variant D270H (antibody, human IgG1)
heavy: not shown
light: B1 light
notes: as for B1
B5: GpH7-B3/GpL16-k0 variant D270M (antibody, human IgG1)
heavy: not shown
light: B1 light
notes: as for B1
B6: GpH7-B3/GpL16-k0 variant P271S (antibody, human IgG1)
heavy: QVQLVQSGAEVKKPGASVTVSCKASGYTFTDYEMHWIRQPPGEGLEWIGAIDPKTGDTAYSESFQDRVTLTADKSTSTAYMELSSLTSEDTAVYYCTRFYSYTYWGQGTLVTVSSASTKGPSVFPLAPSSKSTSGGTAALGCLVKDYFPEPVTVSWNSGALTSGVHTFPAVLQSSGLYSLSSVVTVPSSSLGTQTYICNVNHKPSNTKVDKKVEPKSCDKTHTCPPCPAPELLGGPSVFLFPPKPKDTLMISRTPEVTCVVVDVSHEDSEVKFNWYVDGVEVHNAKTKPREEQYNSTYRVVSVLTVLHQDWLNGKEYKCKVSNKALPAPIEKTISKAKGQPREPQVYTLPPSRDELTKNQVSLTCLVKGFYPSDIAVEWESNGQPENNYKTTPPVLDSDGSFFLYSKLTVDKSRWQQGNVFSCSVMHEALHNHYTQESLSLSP
light: B1 light
notes: as for B1
B7: GpH7-B3/GpL16-k0 variant P271H (antibody, human IgG1)
heavy: not shown
light: B1 light
notes: as for B1
B8: GpH7-B3/GpL16-k0 variant P271Y (antibody, human IgG1)
heavy: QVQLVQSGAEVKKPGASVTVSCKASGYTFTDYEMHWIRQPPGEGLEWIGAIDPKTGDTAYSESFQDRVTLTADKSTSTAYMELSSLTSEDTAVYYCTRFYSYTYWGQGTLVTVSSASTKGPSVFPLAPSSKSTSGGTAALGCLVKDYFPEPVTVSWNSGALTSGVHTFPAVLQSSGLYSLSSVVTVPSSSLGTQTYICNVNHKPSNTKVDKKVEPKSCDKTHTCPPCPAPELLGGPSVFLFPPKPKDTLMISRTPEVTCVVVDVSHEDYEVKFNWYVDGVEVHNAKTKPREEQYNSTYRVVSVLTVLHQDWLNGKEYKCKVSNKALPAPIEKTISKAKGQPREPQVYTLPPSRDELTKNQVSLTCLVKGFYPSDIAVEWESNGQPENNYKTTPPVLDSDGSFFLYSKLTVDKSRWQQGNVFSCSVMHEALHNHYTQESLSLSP
light: B1 light
notes: as for B1
B9: GpH7-B3/GpL16-k0 variant D270G (antibody, human IgG1)
heavy: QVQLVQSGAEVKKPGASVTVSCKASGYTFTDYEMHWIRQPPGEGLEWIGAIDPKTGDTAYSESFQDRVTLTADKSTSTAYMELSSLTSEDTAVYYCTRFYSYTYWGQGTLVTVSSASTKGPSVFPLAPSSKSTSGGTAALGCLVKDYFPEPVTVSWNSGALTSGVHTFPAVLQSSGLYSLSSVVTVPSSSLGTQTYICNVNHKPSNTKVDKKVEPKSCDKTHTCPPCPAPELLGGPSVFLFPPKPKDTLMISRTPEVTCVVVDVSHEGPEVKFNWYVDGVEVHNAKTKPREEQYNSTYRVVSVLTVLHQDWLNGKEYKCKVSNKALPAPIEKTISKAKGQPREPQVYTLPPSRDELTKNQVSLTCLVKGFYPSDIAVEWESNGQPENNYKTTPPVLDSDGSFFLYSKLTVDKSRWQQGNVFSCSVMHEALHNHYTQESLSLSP
light: B1 light
notes: as for B1
B10: GpH7-B3/GpL16-k0 variant D270S (antibody, human IgG1)
heavy: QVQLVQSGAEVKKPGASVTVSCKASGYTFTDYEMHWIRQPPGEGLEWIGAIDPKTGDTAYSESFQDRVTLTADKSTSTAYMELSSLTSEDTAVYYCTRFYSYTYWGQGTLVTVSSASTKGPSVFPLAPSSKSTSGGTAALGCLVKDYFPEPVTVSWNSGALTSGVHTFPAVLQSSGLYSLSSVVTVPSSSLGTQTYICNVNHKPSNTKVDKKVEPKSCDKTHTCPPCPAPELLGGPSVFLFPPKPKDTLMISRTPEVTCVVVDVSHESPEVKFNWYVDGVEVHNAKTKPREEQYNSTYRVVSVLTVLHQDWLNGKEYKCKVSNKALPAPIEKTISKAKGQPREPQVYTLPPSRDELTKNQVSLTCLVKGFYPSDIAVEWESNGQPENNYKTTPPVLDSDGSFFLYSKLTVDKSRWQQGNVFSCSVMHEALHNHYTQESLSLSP
light: B1 light
notes: as for B1
B11: GpH7-B3/GpL16-k0 variant P271T (antibody, human IgG1)
heavy: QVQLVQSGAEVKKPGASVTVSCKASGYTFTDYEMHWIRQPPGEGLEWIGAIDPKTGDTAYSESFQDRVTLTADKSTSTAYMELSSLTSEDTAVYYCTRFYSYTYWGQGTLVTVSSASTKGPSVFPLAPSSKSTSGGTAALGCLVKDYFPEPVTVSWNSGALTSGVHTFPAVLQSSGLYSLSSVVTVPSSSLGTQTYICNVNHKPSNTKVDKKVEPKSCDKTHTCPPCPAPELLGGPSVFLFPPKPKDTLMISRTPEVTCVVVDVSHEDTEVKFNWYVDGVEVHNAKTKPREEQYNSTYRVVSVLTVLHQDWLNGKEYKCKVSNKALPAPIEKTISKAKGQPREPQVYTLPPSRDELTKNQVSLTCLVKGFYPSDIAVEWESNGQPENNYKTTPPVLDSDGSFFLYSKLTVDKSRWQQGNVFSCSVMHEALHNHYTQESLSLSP
light: B1 light
notes: as for B1
B12: GpH7-B3/GpL16-k0 variant Y296P (antibody, human IgG1)
heavy: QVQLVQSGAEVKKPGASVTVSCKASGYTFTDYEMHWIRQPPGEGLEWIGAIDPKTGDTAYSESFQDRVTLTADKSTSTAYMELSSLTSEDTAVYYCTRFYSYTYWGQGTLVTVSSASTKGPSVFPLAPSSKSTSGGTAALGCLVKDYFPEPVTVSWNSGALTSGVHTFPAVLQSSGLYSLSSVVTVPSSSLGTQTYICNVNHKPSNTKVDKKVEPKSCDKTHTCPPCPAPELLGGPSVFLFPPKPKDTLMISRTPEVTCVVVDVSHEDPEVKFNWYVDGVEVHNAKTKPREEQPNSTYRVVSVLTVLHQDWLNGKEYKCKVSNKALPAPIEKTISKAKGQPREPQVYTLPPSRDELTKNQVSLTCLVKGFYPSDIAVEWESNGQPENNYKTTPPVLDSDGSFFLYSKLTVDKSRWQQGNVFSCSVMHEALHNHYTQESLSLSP
light: B1 light
notes: as for B1
B13: GpH7-B3/GpL16-k0 variant D270A (antibody, human IgG1)
heavy: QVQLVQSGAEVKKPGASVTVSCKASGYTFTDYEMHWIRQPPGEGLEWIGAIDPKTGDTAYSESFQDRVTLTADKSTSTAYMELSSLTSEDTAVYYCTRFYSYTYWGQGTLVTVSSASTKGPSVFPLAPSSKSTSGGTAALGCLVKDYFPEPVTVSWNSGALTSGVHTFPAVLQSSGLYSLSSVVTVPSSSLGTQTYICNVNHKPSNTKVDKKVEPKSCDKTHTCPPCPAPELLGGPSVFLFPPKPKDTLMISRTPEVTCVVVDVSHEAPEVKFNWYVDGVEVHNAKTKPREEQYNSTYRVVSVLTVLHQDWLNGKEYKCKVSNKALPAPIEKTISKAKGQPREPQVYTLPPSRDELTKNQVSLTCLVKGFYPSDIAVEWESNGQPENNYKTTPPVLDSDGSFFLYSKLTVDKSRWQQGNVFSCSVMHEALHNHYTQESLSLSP
light: B1 light
notes: as for B1
B14: GpH7-B3/GpL16-k0 variant P271F (antibody, human IgG1)
heavy: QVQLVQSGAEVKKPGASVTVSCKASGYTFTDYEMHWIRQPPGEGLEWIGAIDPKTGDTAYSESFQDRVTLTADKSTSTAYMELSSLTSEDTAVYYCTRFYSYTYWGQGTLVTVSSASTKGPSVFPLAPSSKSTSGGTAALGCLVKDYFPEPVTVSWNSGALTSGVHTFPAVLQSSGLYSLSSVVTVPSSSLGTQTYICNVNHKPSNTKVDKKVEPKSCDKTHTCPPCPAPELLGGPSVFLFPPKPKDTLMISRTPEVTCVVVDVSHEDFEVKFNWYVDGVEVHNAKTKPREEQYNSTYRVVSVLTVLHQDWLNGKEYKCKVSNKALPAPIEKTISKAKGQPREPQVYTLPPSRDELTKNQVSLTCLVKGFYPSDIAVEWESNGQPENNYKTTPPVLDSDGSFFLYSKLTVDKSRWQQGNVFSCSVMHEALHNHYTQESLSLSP
light: B1 light
notes: as for B1

target: T1, human FcγRIIb; assay: SPR (Biacore), antibody captured, FcγR as analyte; amount bound / that of GpH7-B3/GpL16-k0 x 100;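 also: FcγR binding response divided by the captured antibody amount before comparison, measured at 25 °C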
Protocol: (§1) Interaction between each modified antibody and Fcγ receptor prepared in the manner described above was analyzed using the BIACORE™ T100 surface plasmon resonance system (GE Healthcare), BIACORE™ T200 surface plasmon resonance system (GE Healthcare), BIACORE™ A100 surface plasmon resonance system or BIACORE™ 4000 surface plasmon resonance system. HBS-EP+(GE Healthcare) was used for the running buffer, and measurements were carried out at 25° C. The chips used were chips in which antigen peptides, Protein A (Thermo Scientific), Protein A/G (Thermo Scientific) or Protein L (ACTIGEN® protein (Alltech or BioVision) were immobilized on the Series S Sensor Chip CM5 (GE Healthcare) or Series S Sensor Chip CM4 (GE Healthcare) by amine coupling, or chips in which preliminarily biotinylated antigen peptides were allowed to interact and then immobilized on the Series S Sensor Chip SA (certified) (GE Healthcare). The target antibodies were captured on these sensor chips, Fcγ receptor diluted with the running buffer was allowed to interact, followed by measurement of the amount of bound antibody. The amounts bound were compared between antibodies. However, since the amount of Fcγ receptor bound depends on the amount of captured antibody, the values used for comparison were first corrected by dividing the amount of Fcγ receptor bound by the captured amount of each antibody. Through reaction with 10 mM glycine-HCl at pH 1.5, the sensor chips were regenerated by washing off antibody captured on the sensor chips and used repeatedly.
(§2) Binding strength was evaluated according to the following method based on the results of analyzing the interaction with each FcγR. […] That value was then further multiplied by 100, and the resulting value was used as an indicator of relative binding activity to each FcγR.

Binder | relative binding activity [GpH7-B3/GpL16-k0 = 100]
B1 | 1
B2 | 30
B3 | -2
B4 | -2
B5 | 6
B6 | 82
B7 | 53
B8 | 28
B9 | 3
B10 | -1
B11 | 78
B12 | 7
B13 | 5
B14 | 38

Target: T2, human FcγRIIa(R)
Assay: as above
Protocol: as §1, §2

Binder | relative binding activity [GpH7-B3/GpL16-k0 = 100]
B1 | -3
B2 | 46
B3 | -1
B4 | 0
B5 | 7
B6 | 83
B7 | 58
B8 | 38
B9 | 3
B10 | 0
B11 | 73
B12 | 10
B13 | 3
B14 | 49

target: T3, human FcγRIIa(H); assay: as above
Protocol: as §1, §2

Binder | relative binding activity [GpH7-B3/GpL16-k0 = 100]
B1 | 0
B2 | 74
B3 | 34
B4 | 53
B5 | 57
B6 | 67
B7 | 58
B8 | 48
B9 | 29
B10 | 49
B11 | 42
B12 | 8
B13 | 66
B14 | 55

target: T4, human FcγRIIIa(F) (human, UniProt P08637 17-208, limits assumed); assay: as above
T4 construct: also called FcgRIIIaF; FcγRIIIa allotype F158
T4 sequence (P08637 other isoform, or with tags, fused parts or gaps limits assumed): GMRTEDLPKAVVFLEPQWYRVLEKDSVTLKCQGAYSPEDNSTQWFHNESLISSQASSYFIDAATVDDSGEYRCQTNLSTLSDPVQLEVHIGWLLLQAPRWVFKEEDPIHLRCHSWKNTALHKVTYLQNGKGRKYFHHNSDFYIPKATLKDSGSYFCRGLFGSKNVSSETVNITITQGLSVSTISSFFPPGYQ
Protocol: as §1, §2

Binder | relative binding activity [GpH7-B3/GpL16-k0 = 100]
B1 | -1
B2 | 46
B3 | 13
B4 | 11
B5 | 29
B6 | 62
B7 | 50
B8 | 33
B9 | 6
B10 | 17
B11 | 31
B13 | 23
B14 | 39

target: T5, human FcγRIa (human, UniProt P12314 16-292, limits assumed); assay: as above
T5 construct: also called FcgRIa; CD64
T5 sequence (P12314 16-292 limits assumed): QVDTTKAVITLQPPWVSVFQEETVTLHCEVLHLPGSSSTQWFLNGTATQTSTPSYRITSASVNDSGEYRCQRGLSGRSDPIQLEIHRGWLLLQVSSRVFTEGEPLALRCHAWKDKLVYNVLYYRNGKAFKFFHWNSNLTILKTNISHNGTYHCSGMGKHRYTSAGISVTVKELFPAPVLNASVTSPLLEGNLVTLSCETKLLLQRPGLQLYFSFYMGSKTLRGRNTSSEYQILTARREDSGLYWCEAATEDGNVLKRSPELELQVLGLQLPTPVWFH
Protocol: as §1, §2

Binder | relative binding activity [GpH7-B3/GpL16-k0 = 100]
B1 | 64
B2 | 99
B3 | 68
B4 | 70
B5 | 90
B6 | 99
B7 | 98
B8 | 98
B9 | 82
B10 | 73
B11 | 98
B12 | 45
B13 | 87
B14 | 99
